This data set concerns the molecule itself. Nature of the data set: SDS-PAGE and Western blot of SDS-resistant oligomers. In general terms: A western blot detects proteins with antibodies after separation by electrophoresis.

Here are results for two proteins from paper PMC4688242 (Neurobiology of disease, 2015).

On to EASNCFAIRHFENKFAVETLICFNLFLNSQEKHY (N-terminal pyroglutamate (pE) in place of Glu1) [ADan pE (34-amino acid ADan amyloid peptide with N-terminal pyroglutamate)], for which the binding result is on record as “binds”.

On to EASNCFAIRHFENKFAVETLICFNLFLNSQEKHY [ADan E (34-amino acid ADan amyloid peptide with N-terminal glutamate)], for which the binding result is “binds”.
